# Measured values taken from patent publication US20160346402A1 (Bayer, published 2016).
# Changes are numbered by the printed parent chain.
# B1: 18.3.3(TPP-2193) (antibody, mouse IgG2a, kappa, V domains shown)
# VH: EVKLGESGGGLVQPGGSMKLSCVASGFPFTKYWMNWVRQSPEKGLEWVAEIRLKSDNYATHYAESAKGRFTISRDDSRSSVYLQMNNLRAEDTAIYYCSPTYADTMDYWGQGTSVTVSS
# VL: DIVLTQSPASLAVSLGQRATISCKASQSVSTSTYSYMQWYQQRPGQSPKLLIKYASKLDSGVPARFSGSGSGTDFTLNIHPVEEEDTATYYCQHSWELPYTFGGGTRLEIKR
# notes: Comparative antibody, murine IgG2a; variable domains from WO2009/020933 with added constant regions
# B2: 136.1(TPP-2194) (antibody, mouse IgG2a, kappa, V domains shown)
# VH: EVKLEESGGGLVQPGGSMKLSCVASGFTFNNYWMSWVRQSPEKGLEWLAEIRLKSDNYATHYAESVKGKFTISRDDSKSRLYLQMNNLRAENTGIYYCTGGFADYFDYWGQGTTLTVSS
# VL: B1 VL with A12T, K24R, T33S, S47P, S56T, K57N, T87A, L98I, R107K
# notes: as for B1
# B3: TPP-883 (antibody, human IgG1, kappa, V domains shown)
# VH: EVQLLESGGGLVQPGGSLRLSCAASGFTFSPYPMMWVRQAPGKGLEWVSYISPSGGKTHYADSVKGRFTISRDNSKNTLYLQMNSLRAEDTAVYYCARGGDGYFDYFDYWGQGTLVTVSS
# VL: DIQMTQSPATLSASVGDRVTITCRASQSISSYLNWYQQKPGKAPKLLIYAASSLQSGVPSRFSGSGSGTDFTLTISSLQPEDFATYYCQQSYSSPGITFGPGTKVEIKR
# notes: human IgG1
# B4: TPP-2148 (antibody, human IgG1, kappa, V domains shown)
# VH: B3 VH with G102T
# VL: B3 VL with A50Q, S93T, G96F
# notes: human IgG1
# B5: TPP-2084 (antibody, human IgG1, kappa, V domains shown)
# VH: B3 VH with K57S, G102T
# VL: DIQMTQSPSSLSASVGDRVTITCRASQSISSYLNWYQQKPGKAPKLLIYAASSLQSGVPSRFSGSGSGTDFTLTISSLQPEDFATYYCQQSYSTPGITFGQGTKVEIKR
# notes: human IgG1
# B6: TPP-2090 (antibody, human IgG1, kappa, V domains shown)
# VH: B3 VH with M35I, K57S, G102T
# VL: B3 VL with A9S, T10S, S31G, A50Q, S93T, G96F, P101Q
# notes: human IgG1; also called anti-TWEAKR AK-1
# B7: TPP-2149 (antibody, human IgG1, kappa, V domains shown)
# VH: B3 VH with M35I, G102T
# VL: B3 VL with S31G, A50Q, S93T, G96F
# notes: human IgG1
# B8: TPP-1538 (antibody, human IgG1, kappa)
# light: AQDIQMTQSPATLSASVGDRVTITCRASQSISSYLNWYQQKPGKAPKLLIYAASSLQSGVPSRFSGSGSGTDFTLTISSLQPEDFATYYCQQSYSSPGITFGPGTKVEIKRTVAAPSVFIFPPSDEQLKSGTASVVCLLNNFYPREAKVQWKVDNALQSGNSQESVTEQDSKDSTYSLSSTLTLSKADYEKHKLYACEVTHQGLSSPVTKSFNRGEC
# heavy: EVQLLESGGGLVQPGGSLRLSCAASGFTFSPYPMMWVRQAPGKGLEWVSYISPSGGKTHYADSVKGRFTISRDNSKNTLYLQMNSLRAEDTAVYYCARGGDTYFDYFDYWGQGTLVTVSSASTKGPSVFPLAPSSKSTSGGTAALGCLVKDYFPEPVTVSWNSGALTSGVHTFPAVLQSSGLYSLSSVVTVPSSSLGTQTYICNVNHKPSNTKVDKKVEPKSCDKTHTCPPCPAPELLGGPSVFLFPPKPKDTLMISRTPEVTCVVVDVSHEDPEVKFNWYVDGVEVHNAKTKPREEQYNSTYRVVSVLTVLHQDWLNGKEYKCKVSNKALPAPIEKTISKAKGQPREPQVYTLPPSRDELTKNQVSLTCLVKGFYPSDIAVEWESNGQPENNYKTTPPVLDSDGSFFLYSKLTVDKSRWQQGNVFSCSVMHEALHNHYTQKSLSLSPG
# notes: human IgG1
# B9: TPP-2093 (antibody, human IgG1, kappa, V domains shown)
# VH: B3 VH with K57S, G102T
# VL: B3 VL with A9S, T10S, A50Q, S93T, G96F, P101Q
# notes: human IgG1
# B10: TPP-2077 (antibody, human IgG1, kappa)
# light: DIQMTQSPATLSASVGDRVTITCRASQSISSYLNWYQQKPGKAPKLLIYAASSLQSGVPSRFSGSGSGTDFTLTISSLQPEDFATYYCQQSYSSPGITFGPGTKVEIKRTVAAPSVFIFPPSDEQLKSGTASVVCLLNNFYPREAKVQWKVDNALQSGNSQESVTEQDSKDSTYSLSSTLTLSKADYEKHKLYACEVTHQGLSSPVTKSFNRGEC
# heavy: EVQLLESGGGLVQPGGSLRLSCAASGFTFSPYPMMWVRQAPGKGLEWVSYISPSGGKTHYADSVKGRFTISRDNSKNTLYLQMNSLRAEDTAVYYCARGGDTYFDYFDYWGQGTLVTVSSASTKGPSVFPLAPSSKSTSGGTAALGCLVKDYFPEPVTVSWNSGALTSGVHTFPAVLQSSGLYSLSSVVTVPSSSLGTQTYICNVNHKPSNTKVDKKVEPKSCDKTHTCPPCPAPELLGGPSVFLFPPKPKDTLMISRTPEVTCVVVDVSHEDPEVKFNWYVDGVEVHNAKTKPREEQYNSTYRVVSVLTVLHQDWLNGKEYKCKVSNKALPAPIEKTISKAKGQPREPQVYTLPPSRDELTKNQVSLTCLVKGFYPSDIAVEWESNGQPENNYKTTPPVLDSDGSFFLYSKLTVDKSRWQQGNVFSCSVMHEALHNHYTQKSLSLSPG
# notes: human IgG1
# B11: P3G5(TPP-2195) (antibody, mouse IgG2a, kappa, V domains shown)
# VH: QVQLQQSGPEVVRPGVSVKISCKGSGYTFTDYGIHWVKQSHAKSLEWIGVISTYNGYTNYNQKFKGKATMTVDKSSSTAYMELARLTSEDSAIYYCARAYYGNLYYAMDYWGQGTSVTVSS
# VL: DIVLTQSPASLAVSLGQRATISCRANKSVSTSSYSYMHWYQQKPGQPPKLLIKYASNLESGVPARFSGSGSGTDFILNIHPVEEEDAATYYCQHSRELPFTFGSGTKLEIKR
# notes: Comparative antibody, murine IgG2a; variable domains from WO2009/140177 with added constant regions
# B12: P4A8(TPP-1324) (antibody, human IgG1, kappa, V domains shown)
# VH: QVQLVQSGAEVKKPGASVKVSCKGSGYTFTDYGMHWVRQAPGQGLEWMGVISTYNGYTNYNQKFKGRVTMTVDKSTSTAYMELRSLRSDDTAVYYCARAYYGNLYYAMDYWGQGTLVTVSS
# VL: B11 VL with N26S, I76S, V82M, E85D, A87T, T89M, Y91F, S104G
# notes: Comparative antibody, human IgG1; variable domains from WO2009/140177 with added constant regions
# B13: 136.1(TPP-2194) (antibody, mouse IgG2a, kappa, V domains shown)
# VH: B2 VH
# VL: B1 VL with A12T, K24R, T33S, S47P, S56T, K57N, T87A, L98I, R107K
# notes: murine IgG2a; variable domains from WO2009/020933 with a murine IgG2 constant region added; biotinylated IgG in the ELISA
# B14: 18.3.3(TPP-2193) (antibody, mouse IgG2a, kappa, V domains shown)
# VH: B1 VH
# VL: B1 VL
# notes: as for B13
# B15: P4A8(TPP-1324) (antibody, human IgG1, kappa, V domains shown)
# VH: B12 VH
# VL: B11 VL with N26S, I76S, V82M, E85D, A87T, T89M, Y91F, S104G
# notes: human IgG1; variable domains from WO2009/140177 with a human IgG1 constant region added; biotinylated IgG in the ELISA
# B16: PDL-192(TPP-1104) (antibody, human IgG1, kappa, V domains shown)
# VH: QVELVESGGGLVQPGGSLRLSCAASGFTFSSYWMSWVRQAPGKGLEWVAEIRLKSDNYATHYAESVKGRFTISRDDSKNSLYLQMNSLRAEDTAVYYCTGYYADAMDYWGQGTLVTVSS
# VL: DIQMTQSPSSLSASVGDRVTITCRASQSVSTSSYSYMHWYQQKPGKAPKLLIKYASNLESGVPSRFSGSGSGTDFTLTISSLQPEDFATYYCQHSWEIPYTFGGGTKVEIKR
# notes: human IgG1; variable domains from WO2009/020933 with a human IgG1 constant region added; biotinylated IgG in the ELISA
# Target: T1, TPP-2305, hTNFRSF12 amino acids a28-80 (recombinant human TWEAKR protein) (human, UniProt Q9NP84 28-80)
# T1 construct: Soluble monomeric antigen, injected as analyte over the captured antibodies; Bought protein
# Assay: SPR (Biacore T100), antibody captured, TWEAKR TPP-2305 as analyte, 1:1 model
# Description: The antibodies were immobilized on a CM5 sensor chip using an indirect capture reagent, anti-human IgG(Fc). Reagents of the “Human Antibody Capture Kit” (BR-1008-39, GE Healthcare Biacore, Inc.) were used as described by the manufacturer.
# Sensorgrams were generated after in-line reference cell correction, followed by subtraction of the buffer sample. The dissociation constant (KD) was calculated based on the ratio of association (kₒₙ) and dissociation (koff) constants, obtained by fitting sensorgrams using a 1:1 first order binding model.
Kd [nM],koff [s⁻¹],kon [M⁻¹ s⁻¹],Binder
1.7,0.0285,1.64e+07,B1
0.8,0.0324,3.84e+07,B2
206,0.91,4.4e+06,B3
24.5,0.13,5.1e+06,B4
27.6,0.11,4.2e+06,B5
12.4,0.11,9.1e+06,B6
12.1,0.1,8.4e+06,B7
27.6,0.11,4.2e+06,B8
22.1,0.09,4.1e+06,B9
28.9,0.086,3e+06,B10
0.5,0.00122,2.31e+06,B11
2.3,0.0027,1.2e+06,B12

# Target: T2, hTNFRSF12 amino acids a28-80-T33Q-hIgG1-Fc (human)
# T2 construct: TWEAKR-Fc mutein, coated on the ELISA plate; also called TPP-1986
# Assay: ELISA: TWEAKR-Fc construct coated at 62 ng/ml, biotinylated IgG titrated from 100 nM; token + marks IC50 of 1 to […] pM
# Description: (§1) To obtain dose-reaction data, the different TWEAKR-Fc muteins were coated at a low concentration (62 ng/ml) onto a 384-well Maxisorb ELISA plate, and a serial 2-fold dilution of biotinylated IgG beginning with a concentration of 100 nM was used as a soluble binding partner. Detection was carried out using streptavidin-HRP and Amplex Red.
# (§2) IgGs were biotinylated using an about 2-fold molar excess of biotin-LC-NHS (Pierce; Cat. No. 21347) according to the instructions of the manufacturer and desalted using Zeba desalting columns (Pierce; Cat. No. 89889).
row,binding result,Binder
1,binds,B13
2,binds,B14
3,binds,B15

# Target: T3, hTNFRSF12 amino acids a28-80-S40R-hIgG1-Fc (human)
# T3 construct: TWEAKR-Fc mutein, coated on the ELISA plate; also called TPP-1987
# Assay: as above
# Description: as §1, §2
row,binding result,Binder
1,binds,B13
2,binds,B14
3,binds,B15

# Target: T4, hTNFRSF12 amino acids a28-80-M50A-hIgG1-Fc (human)
# T4 construct: TWEAKR-Fc mutein, coated on the ELISA plate; also called TPP-1988
# Assay: as above
# Description: as §1, §2
row,binding result,Binder
1,binds,B13
2,binds,B14
3,binds,B15
4,binds,B16

# Target: T5, hTNFRSF12 amino acids a28-80-H60K-hIgG1-Fc (human)
# T5 construct: TWEAKR-Fc mutein, coated on the ELISA plate; also called TPP-1989
# Assay: as above
# Description: as §1, §2
row,binding result,Binder
1,binds,B13
2,binds,B14
3,binds,B15

# Target: T6, hTNFRSF12 amino acids a28-80-L65Q-hIgG1-Fc (human)
# T6 construct: TWEAKR-Fc mutein, coated on the ELISA plate
# Assay: as above
# Description: as §1, §2
row,binding result,Binder
1,binds,B13
2,binds,B14
3,binds,B15

# Target: T7, hTNFRSF12 amino acids a28-80-hIgG1-Fc (human)
# T7 construct: wild-type TWEAKR-Fc (dimeric Fc fusion), coated on the ELISA plate; also called TPP-599; HUMAN-TNFRSF12Aaa28-80-hIgG1-Fc
# Assay: as above
# Description: as §1, §2
row,binding result,Binder
1,binds,B13
2,binds,B14
3,binds,B15
